Results on two substances are retold here after patent US20150210998.

In data set [1] the target is UbcH7˜125I-ubiquitin thioester (UniProt P68036).
The target in data set [2] is HPV16 E6 protein (recombinant, full-length) (UniProt P03126).
Chain of HPV16 E6 protein (recombinant, full-length) (P03126 whole entry): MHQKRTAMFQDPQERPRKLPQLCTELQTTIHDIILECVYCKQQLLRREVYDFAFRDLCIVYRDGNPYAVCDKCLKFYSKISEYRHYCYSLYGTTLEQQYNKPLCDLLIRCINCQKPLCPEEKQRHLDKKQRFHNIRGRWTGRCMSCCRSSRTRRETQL

Chain of UbcH7˜125I-ubiquitin thioester (P68036 whole entry, looked up): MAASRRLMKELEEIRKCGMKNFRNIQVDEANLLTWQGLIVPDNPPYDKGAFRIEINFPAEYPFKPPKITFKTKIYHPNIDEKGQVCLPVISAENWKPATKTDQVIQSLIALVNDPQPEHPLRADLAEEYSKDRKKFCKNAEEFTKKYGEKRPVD

Turning to “GST-E6AP ligase (wild-type, bacterially expressed fusion protein)”, in data set [1], the Km- was determined as 0.058 µM.

Regarding “His6-E6AP ligase (full-length, baculovirus-expressed)”, in data set [1], the Km- worked out at 0.046 µM. In addition, the “kcat of 125I-polyubiquitin chain formation in the presence of E6” value in data set [2] stood at 0.81±0.045 s^-1 in its presence.
